Positions of bridges follow the written chain, without caps; N, C: chain ends. Non-standard residues stand in square brackets, D forms with d. Groups on a side chain read outwards from the residue. No end group written: not given here. *: point of attachment. Docosanoyl = CCCCCCCCCCCCCCCCCCCCCC(=O)*; Phe(4-NH2) = Nc1ccc(C[C@H](N)C(=O)O)cc1; PhLac = O=C(O)[C@@H](O)Cc1ccccc1; Aib = CC(C)(N)C(=O)O; C20 = C20 acyl group; Sar = CNCC(=O)O
Experiments:
[1] = molecular target: GLP-1 receptor (Homo sapiens, UniProt P43220); assay: GLP-receptor luciferase bioassay of samples incubated in 20% human plasma (restored activity); format: cell-based; conditions: 37° C., 0 to 5 d
Experimental: To explore the possible formation of DKP and simultaneous regeneration of the parent drug, the above-mentioned peptides were incubated in 20% human plasma at 37° C. for approximately 5 days. Samples were collected at different time points (0, 1, 2, and 5 days).

[2] = molecular target: glucagon receptor (UniProt P47871); assay: cell-based or functional assay
[3] = molecular target: glucagon receptor (UniProt P47871); assay: cell-based or functional assay; remark: listed apart in the source
[4] = molecular target: T1, GLP-1 receptor (UniProt P43220 24-463, limits assumed); assay: cell-based or functional assay
[5] = molecular target: glucagon receptor (UniProt P47871 26-477, limits assumed); assay: cell-based or functional assay
[6] = molecular target: T1, GLP-1 receptor; assay: cell-based or functional assay; remark: listed apart in the source

Sequence of glucagon receptor (UniProt P47871 26-477, limits assumed) (P47871 26-477 limits assumed): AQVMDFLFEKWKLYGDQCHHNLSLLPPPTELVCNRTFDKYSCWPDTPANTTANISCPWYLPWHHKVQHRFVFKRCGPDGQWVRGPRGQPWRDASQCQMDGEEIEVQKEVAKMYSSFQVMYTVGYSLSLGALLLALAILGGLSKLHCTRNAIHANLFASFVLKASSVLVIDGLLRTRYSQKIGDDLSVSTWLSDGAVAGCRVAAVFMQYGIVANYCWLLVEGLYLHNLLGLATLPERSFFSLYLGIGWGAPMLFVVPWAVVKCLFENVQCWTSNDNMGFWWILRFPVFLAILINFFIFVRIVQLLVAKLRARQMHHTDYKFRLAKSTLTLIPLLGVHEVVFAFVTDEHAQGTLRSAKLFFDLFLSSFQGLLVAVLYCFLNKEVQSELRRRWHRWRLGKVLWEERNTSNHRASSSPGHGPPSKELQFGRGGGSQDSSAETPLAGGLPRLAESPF
Sequence of glucagon receptor (UniProt P47871) (P47871 26-477 limits assumed): as above
Sequence of GLP-1 receptor (Homo sapiens, UniProt P43220) (P43220 24-463): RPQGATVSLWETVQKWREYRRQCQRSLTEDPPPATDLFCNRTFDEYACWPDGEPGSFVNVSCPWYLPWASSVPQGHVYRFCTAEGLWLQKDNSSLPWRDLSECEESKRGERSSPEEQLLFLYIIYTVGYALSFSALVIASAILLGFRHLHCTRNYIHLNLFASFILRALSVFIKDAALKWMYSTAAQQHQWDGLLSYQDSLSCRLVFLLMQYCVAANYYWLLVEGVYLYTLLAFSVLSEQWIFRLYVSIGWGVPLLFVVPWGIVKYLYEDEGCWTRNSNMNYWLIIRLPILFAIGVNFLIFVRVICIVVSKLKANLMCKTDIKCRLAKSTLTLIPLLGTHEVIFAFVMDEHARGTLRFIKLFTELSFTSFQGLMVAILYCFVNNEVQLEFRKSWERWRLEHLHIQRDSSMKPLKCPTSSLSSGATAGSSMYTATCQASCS

| Molecule | GLP-1 EC50 [4] | Relative activity to GLP-1 standard, luciferase cAMP reporter assay, sample after 0 d in 20% human plasma at 37 C [6] | Relative activity to GLP-1 standard, luciferase cAMP reporter assay, sample after 1 d in 20% human plasma at 37 C [6] | Relative activity to GLP-1 standard, luciferase cAMP reporter assay, sample after 5 d in 20% human plasma at 37 C [6] | also measured |
| --- | --- | --- | --- | --- | --- |
| C20 attached directly to position 10 (non-prodrug): non-prodrug: C20-acylated lysine attached directly to the 4-amino group of phenylalanine at position 10 of Peptide D (F[Aib]EGTFTSD[Phe(4-NH2)]([Lys-C20])SIYLDKQAA[Aib]EFVNWLLAGGPSSGAPPPS; not fully specified (C-terminus)) |  |  |  |  | Change of activity over the time points in plasma [1]: No change |
| C22 attached directly to position 10 (non-prodrug): non-prodrug: C22-acylated lysine attached directly to the 4-amino group of phenylalanine at position 10 of Peptide D (F[Aib]EGTFTSD[Phe(4-NH2)]([Lys-Docosanoyl])SIYLDKQAA[Aib]EFVNWLLAGGPSSGAPPPS; not fully specified (C-terminus)) |  |  |  |  | Change of activity over the time points in plasma [1]: No change |
| E9, K12, E16 glucagon(6-39) Cex peptide (Table 1 peptide 1) |  |  |  |  | Glu IC50 [2]: 762 nM; Glucagon IC50 [3]: 762 nM |
| GTFTSEYSKYLDERRAKDFVQWLMDT-NH2 (lactam 13-17; N-terminus assumed; SMILES CSCC[C@H](NC(=O)[C@H](CC(C)C)NC(=O)[C@H](Cc1c[nH]c2ccccc12)NC(=O)[C@H](CCC(N)=O)NC(=O)[C@@H](NC(=O)[C@H](Cc1ccccc1)NC(=O)[C@H](CC(=O)O)NC(=O)[C@@H]1CCCCNC(=O)CC[C@H](NC(=O)[C@H](CC(=O)O)NC(=O)[C@H](CC(C)C)NC(=O)[C@H](Cc2ccc(O)cc2)NC(=O)[C@H](CCCCN)NC(=O)[C@H](CO)NC(=O)[C@H](Cc2ccc(O)cc2)NC(=O)[C@H](CCC(=O)O)NC(=O)[C@H](CO)NC(=O)[C@@H](NC(=O)[C@H](Cc2ccccc2)NC(=O)[C@@H](NC(=O)CN)[C@@H](C)O)[C@@H](C)O)C(=O)N[C@@H](CCCNC(=N)N)C(=O)N[C@@H](CCCNC(=N)N)C(=O)N[C@@H](C)C(=O)N1)C(C)C)C(=O)N[C@@H](CC(=O)O)C(=O)N[C@H](C(N)=O)[C@@H](C)O) [[E9, E16K20(lactam), D28]G(4~29) (Table 2 peptide 5)] | 151 nM |  |  |  | Glucagon IC50 [5]: 10 to 30 nM |
| HSQGTFTSDYARYLDARRAREFIKWLVRGRG [ANK2 (Bayer peptide) (Table 2 peptide 9)] | 0.28 nM |  |  |  |  |
| F[Aib]EGTFTSD[Phe(4-NH2)]([Lys-C22 acyl])SIYLDKQAA[Aib]EFVNWLLAGGPSSGAPPPS-NH2 (also: acylated amino group of the Lys not given here) |  | 1.8% | 2.1% | 0.4% |  |
| [PhLac]TSDYSKYLDERRAQDFVEWLMKT (lactam 19-23) [[PLA6, D9, E16, E24K28(lactam)]G(6~29) (Table 2 peptide 4)] | 289 nM |  |  |  | Glucagon IC50 [5]: 22 nM |
| AEGTFTSEYSKYLDERRAKDFVQWLMDT (lactam 15-19) [[A2E3, E16K20(Lactam),D28]G(2~29) (Table 2 peptide 7)] |  |  |  |  | Glucagon IC50 [5]: 63 nM |
| F[Aib]EGTFTSD[Phe(4-NH2)]([Lys-C20 acyl])SIYLDKQAA[Aib]EFVNWLLAGGPSSGAPPPS-NH2 (also: acylated amino group of the Lys not given here) |  | 3.4% | 0.7% | 0.2% |  |
| F[Aib]EGTFTSD[Phe(4-NH2)]([Sar-dK-C22 acyl])SIYLDKQAA[Aib]EFVNWLLAGGPSSGAPPPS-NH2 [Peptide D with C22 acylated (d)Lysine-sarcosine dipeptide prodrug moiety at position 10] |  | 30.9% | 48.2% | 63.2% | Restored (percent, 0 d; not defined in the filing, matches the ratio to the parent peptide at the same time) [6]: 36%; Restored (percent, 1 d; not defined in the filing, matches the ratio to the parent peptide at the same time) [6]: 57%; Restored (percent, 5 d; not defined in the filing, matches the ratio to the parent peptide at the same time) [6]: 87% |
| F[Aib]EGTFTSD[Phe(4-NH2)]([Sar-dK-C20 acyl])SIYLDKQAA[Aib]EFVNWLLAGGPSSGAPPPS-NH2 [Peptide D with C20 acylated (d)Lysine-sarcosine dipeptide prodrug moiety at position 10] |  | 30.9% | 37.8% | 96.9% | Restored (percent, 0 d; not defined in the filing, matches the ratio to the parent peptide at the same time) [6]: 36%; Restored (percent, 1 d; not defined in the filing, matches the ratio to the parent peptide at the same time) [6]: 45%; Restored (percent, 5 d; not defined in the filing, matches the ratio to the parent peptide at the same time) [6]: 133% |
| HAEGTFTSEYSKYLDERRAKDFVQWLMDT-NH2 (lactam 16-20; N-terminus assumed; SMILES CSCC[C@H](NC(=O)[C@H](CC(C)C)NC(=O)[C@H](Cc1c[nH]c2ccccc12)NC(=O)[C@H](CCC(N)=O)NC(=O)[C@@H](NC(=O)[C@H](Cc1ccccc1)NC(=O)[C@H](CC(=O)O)NC(=O)[C@@H]1CCCCNC(=O)CC[C@H](NC(=O)[C@H](CC(=O)O)NC(=O)[C@H](CC(C)C)NC(=O)[C@H](Cc2ccc(O)cc2)NC(=O)[C@H](CCCCN)NC(=O)[C@H](CO)NC(=O)[C@H](Cc2ccc(O)cc2)NC(=O)[C@H](CCC(=O)O)NC(=O)[C@H](CO)NC(=O)[C@@H](NC(=O)[C@H](Cc2ccccc2)NC(=O)[C@@H](NC(=O)CNC(=O)[C@H](CCC(=O)O)NC(=O)[C@H](C)NC(=O)[C@@H](N)Cc2c[nH]cn2)[C@@H](C)O)[C@@H](C)O)C(=O)N[C@@H](CCCNC(=N)N)C(=O)N[C@@H](CCCNC(=N)N)C(=O)N[C@@H](C)C(=O)N1)C(C)C)C(=O)N[C@@H](CC(=O)O)C(=O)N[C@H](C(N)=O)[C@@H](C)O) [[A2E3, E16K20(Lactam), D28]G(1~29) (Table 2 peptide 8)] | 0.2 nM |  |  |  | Glucagon IC50 (nM); PA = partial antagonist [5]: 130 nM |
| [PhLac]TSDYSKYLDERRAKDFVEWLMDT (lactam 15-19) [[PLA6, D9, E16, K20E24(Lactam), D28]G(6-29) (Table 2 peptide 3)] | 239 nM |  |  |  | Glucagon IC50 [5]: 74 nM |
| F[Aib]EGTFTSD[Phe(4-NH2)]SIYLDKQAA[Aib]EFVNWLLAGGPSSGAPPPS-NH2 (N-terminus assumed; SMILES CC[C@H](C)[C@H](NC(=O)[C@H](CO)NC(=O)[C@H](Cc1ccc(N)cc1)NC(=O)[C@H](CC(=O)O)NC(=O)[C@H](CO)NC(=O)[C@@H](NC(=O)[C@H](Cc1ccccc1)NC(=O)[C@@H](NC(=O)CNC(=O)[C@H](CCC(=O)O)NC(=O)C(C)(C)NC(=O)[C@@H](N)Cc1ccccc1)[C@@H](C)O)[C@@H](C)O)C(=O)N[C@@H](Cc1ccc(O)cc1)C(=O)N[C@@H](CC(C)C)C(=O)N[C@@H](CC(=O)O)C(=O)N[C@@H](CCCCN)C(=O)N[C@@H](CCC(N)=O)C(=O)N[C@@H](C)C(=O)N[C@@H](C)C(=O)NC(C)(C)C(=O)N[C@@H](CCC(=O)O)C(=O)N[C@@H](Cc1ccccc1)C(=O)N[C@H](C(=O)N[C@@H](CC(N)=O)C(=O)N[C@@H](Cc1c[nH]c2ccccc12)C(=O)N[C@@H](CC(C)C)C(=O)N[C@@H](CC(C)C)C(=O)N[C@@H](C)C(=O)NCC(=O)NCC(=O)N1CCC[C@H]1C(=O)N[C@@H](CO)C(=O)N[C@@H](CO)C(=O)NCC(=O)N[C@@H](C)C(=O)N1CCC[C@H]1C(=O)N1CCC[C@H]1C(=O)N1CCC[C@H]1C(=O)N[C@@H](CO)C(N)=O)C(C)C) [Peptide D (parent peptide, lacking acylation and lacking a dipeptide prodrug moiety)] |  | 85.2% | 84.1% | 72.8% |  |

From patent publication US20160058881A1, “PRODRUGS WITH PROLONGED ACTION” (INDIANA UNIVERSITY RESEARCH AND TECHNOLOGY CORPORATION, priority 2013, published 2016)
